Measurements from the nanobody polyreactivity screen of Harvey et al. (2022).

Test: yeast display, Sf9 membrane polyspecificity reagent, FACS + sequencing; frameworks hold sequencing errors
In short: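 Using colony PCR, genes from sorted yeast display clones were amplified, then sequenced on MiSeq at 2 × 250 and filtered by CDR length. The clones had been stained with 10% biotinylated, detergent-solubilized Sf9 membrane reagent for 1 hour at 4 °C and sorted by FACS into low and high (top ~1%) gates on anti-HA and streptavidin fluorescence. Polyreactivity labels come from the gate of origin.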

Sequence	polyreactivity (PSR sort gate)
QVQLVESGGGLVQGGGSLRLSCAASGRTFAPNAMGWYRQAPGKERELVAAISYNSGTTYYADSVKGRFTISRDNAKNTVYLQMNSLKPEDTAVYYCAAGHWVGPYQAMEYWGQGTQVTVSS	high polyreactivity
QVQLVESGGGLVQGGSLRLSCAASGFTFPIYVMGWSRHAPGKEMELVASISSVGSTNYADSVKGRFTISRDNSKNTVYLQMNSLKPEDTAVYYCNADDPNSYGGFDYWGQGTQVTVSS	low polyreactivity
QVQLVESGGGLVQPGGILRLSCAASGYTFQVYAMGWYRQAPGKEREMVASIRWRGGRTYYADSVKGRFTISRDNAKNTVYLQMNSLKPEDTAVYYCAARQYVIYQTYYTYYYWGQGTQVSVSS	high polyreactivity
QVQLVESGGGLVQPGGSLRISCAASASTFFPYAMGWYRQAPGKERELVAAITGSGGSTYYADSVKGRFTISRDNAKNTVYLQMNSLKPEDTAVYYCNAVWEYYGKSDYWGQGTQVTVSS	low polyreactivity
QVQLVESGGGLVQPGGSLRLIFAASGSIFHYNAIGWYTQAPGKEREFVAVISKSSGSTFYADSVKGRFTISRDNAKNTVYLQMNSLKPEDTAVYYCNLVTKRYPIIGNYWGQGSQVTVSS	high polyreactivity
QVQLVESGGGLVQPGGSLRLSCAASGFILYGNAMGWYRQAPGKERELVAAISRRGGSTYYADSVKGRFTISRDNAKNTVYLQMNSLKPEDTAVYYCAKDGPGGGTRIYDYWGQGTQVTVSS	high polyreactivity
QVQLVESGGGLVQPGGSLRLSCAASGFTFRGYDMGWYRQAPGTERELVAGITWGDDSTYYADSVKGRFTISRDNAKNTVYLQMNSLKPEDTAVYYCATYFRVYYSQYDYWGEGTQVTVSS	high polyreactivity
QVQLVESGGGLVQPGGSLRLSCAASGRIFGWYARGWYRPAPGKERELVAAISRGGTRTNYADSVKGRFTISRDNAKNTVYLQMNSLKPEETAVYYCAARRYSRDFDYWGQGTQVTVSS	high polyreactivity
QVQLVESGGGLVQPGGSLRLSCAASGRIQRYYAMGWYRQAPGKERELVAVITSSDGSTYYADSVKGRFTISRDNAKNTVYLQMNRLKPEDTAVYYCAAAPLWRLASWWDPYRRYDYWGQGTLVTVSS	low polyreactivity
QVQLVESGGGLVQPGGSLRLSCAASGRTFGYNAMGWYRQAPGKERELVAAIRYSGGSTYYADSVKGRFTISRDNAKNTVYLQMNSLKPEDTAVYYCAAYSLFSSYGNDYWGQGTQVTVSS	high polyreactivity
QVQLVESGGGLVQPGGSLRLSCAASGRTIGVYAMGWYRQAPGKERELVAAITTSGDSTYYADSVKGRFTISRDNAKNTVYLQMNSLKPEDTAVYYCAADYYYVYSSFGHYYWGQGTQVTVSS	low polyreactivity
QVQLVESGGGLVQPGGSLRLSCAASGRTYYINAMGWYRQAPGKERELVATISKSGGSTNYADSEKGRFTISRDNAMNTFYLQMNSLKPEDTAVYYCAADTSGGSWGRGRWKFGYWGQGTQVTVSS	high polyreactivity
QVQLVESGGGLVQPGGSLRLSCAASGSIFYWYNMGWYRQAPGKERELVAAINDSGGSTHYADSVKGRFTISRDNEKNTFYLQMNSLKPEDTAVYYCAARKLSSYAYDYWGQGTQVTVSS	low polyreactivity
QVQLVESGGGLVQPGGSLRLSCAASGSTFSGYTMGWYRQAPGKERELVASISSGVSTYYADSVKGRFTISRDNAKNTVYLQMNSLKPEDTAVYYCAADSVGDYGYQVYASWGYEDEYWGQGTQVTVSS	low polyreactivity
QVQLVESGGGLVQPRGSLSLSCAASGYIFDYYDMGWYRPAPGKERELVAAISSSGGTTYYADSVKGRFTISRDNGKNTVYLQMNSLKPEDTAVYYCAAVAVLPRSDYWGQGTQVTVSS	high polyreactivity
QVQLVESGGGLVQSGGSLLLSCAPSGSTFYEYALGGYRQAPGKDRELVAAITSGGSTYYADSVKGRFTISRDNAKNNDYLQMNSLKPEETAVYYCAADPRIRRGDRSTHGYDYWGQGTQVTVSS	low polyreactivity
QVQLVESGGGLVQSGGSLRLSCAASGGTFVPYAMGWDIQAPGKERELVARISKRGGTTYYADSVKGRFTISRDTAKITVYLQMNSLKPEDTAVSSCAAVLPARGYYWGQGTQVTVSS	high polyreactivity
QVQLVESGGGLVQSGGSLRLSCAASGIIFLDYVMVWYRQAPGKERELVAAISLSAGSTNYADSVKGRFTISRDNAKNTVYLQMNSLKPEDTAVYYCAAEVLAVRDDGYRSDEMDYWGQGTQVTVSS	low polyreactivity
QVQLVESGGGLVQSGGSLRLSCAASGRIFRKYVMAWYRPAPGNERELVATISNRVGSTYYADSVKGRFTISRDKAKNTVYLQMNSLKPEDTAVYYCAAVSSYTAYDYWGQGTQVTVSS	high polyreactivity
QVQLVESGGGLVQSGGSLRLSCAASGRTFKYNAMGWYRQAPGKERELVAVIRYSGGTTYYADSVKGRFTISRDNAKNTVYLQMNSLKPEDTAVYYCAADSWSRSVNYYYWGQGTQVTVSS	low polyreactivity
QVQLVESGGGLVQSGGSLRLSCAASGRTYGYNAMGWYRQAPGKERELVAAISRSGDSTYYADSVKGRFTISRDNAKNTVYLQMNSLKPEDTAVYYCATRYVTTGYDYWGQGTQVTVSS	low polyreactivity
QVQLVESGGGLVQSGGSLRLSCAASGSFYYFYSMGWYRQAPGKEREVVAANTDGGSTHYAESVKGRFTISRDNAKNTVYLQMNSMKPEDTAVYSCAAQWHYYLGSGYQYDYWGQGTQVTVSS	low polyreactivity

Sequence	polyreactivity (PSR sort gate)
QVQLVESGGGLVQSGGSLRLSCAASGSIFGSNAMGWYRQAPGKERELVAAISRSGTSTYYADSVKGRFTISRDNAKNTVDLQMTSLKPEDSAVYYSNTAQRYRVYRYDYWGQGTQVTVSS	high polyreactivity
QVQLVESGGGLVQSGGSLRLSCAASGSIFIYYAMGWYRHAPGKERELVAAIDYSGDSTYYADSVKGRFTISRDNAKNTVYLQMNSLKPEDTAVYDCAVYYAGWGDYWGQGTQVTVSS	low polyreactivity
QVQLVESGGGLVQSGGSLRLSCAASGSTFVSNAMGWYRQAPGKERELVAAINGSGGITYYADSVKGRFTISRDNAKNTVYLQMNSLKPEDTAVYYCAAEYDGPSTWVDYYYHYGYWGQGTQVTVSS	low polyreactivity
QVQLVESGGGLVQSGGSLRLSCAASGSTLTFNAMGWYRQAPGKERELVAAISWSDTDTYYADSVKGRFTISRDNAKNTVYLQMNSLKPEDTAVYYCAATLSAYEMDYWGQGTQVTVSS	low polyreactivity
QVQLVESGGGLVQSGGSLRLSCAAYGNFFANNSMGWYRQAPGKERELVAAISQSGGNTYYADSVKGRFTISRDNAKNTVYLQMNSLKPEDTADYYCNAKTYGYNYDSWGQGTQVTVSS	low polyreactivity
QVQLVESGGGLVQSGGSLRLSSAAYGFIFPGNAMGWSRQAPGKEREMVAAISNSGSRTYYADSVKGRFTISRDHAKNTVYLQMNSLKPEDTAVYYCNADVHNRGWPYDYWGQGTQVTVSS	low polyreactivity
QVQLVESGGGLVQSGRSLRLICAASGSTSTQYAMGWYRQAPGKERELVAGITQSGGSTYYADSVKGRFTISRDNAKNTVYLQMNSLKPEDTAVYYCAAPPGYTGRYEYYYWGQGTQVTVSS	high polyreactivity
QVQLVESGGGLVQSRGSLRLSWAASGSTFTYNTMGWYRQAPGKERELVAAISSGGSTYYADSVKGRFTISRDNAKNTVFLQMNSLKPEDTAVYYCAATAQKDSRYGSRYYYWGQGTQVTVSS	high polyreactivity
QVQLVESGGGLVQTGGSLRLSCAASGRIFRSYAMGWNRQAPGKERELVAAISGSGGSTYYADSVKGRFTISRDNAKNTVSLQMNSLKPEDTAVYYCTAGKVHPFSTRFYYWGQGTQVTVSS	low polyreactivity
QVQLVESGGGLVQTGGSLRLSCAASGRILYTNAMGWYRQAPGKERELVAAISSGGRTTYADSVKGRFTISRDNAKNTVYLQMNSLKPEDTAVYYCAAGIRIYGTKRSRGYGYWGQGTQVTVSS	high polyreactivity
QVQLVESGGGLVQTGGSLRLSCAASGSTFYPNTMGWYRQAPGKERELVAAITNGGSTNYADSVKGRFTISRDNAKNTVYLQMNSLKPEDTAVYYCAALYYRFLLGWYKYGYWGQGTQVTVSS	high polyreactivity
QVQLVESGGGLVQVGCSLRLICAASGRTFWWYAMGGYRQAPGKERELVAAISRGSTNYADSVKGRFTISRDNAKNTVYLQMNSLKPEDTAVYYCNAVSLYQSHDYDYWGQGSQVTVSS	low polyreactivity
QVQLVESGGGLVQVGGSLRLSCAASGRTFGRYAMGWYRQAPGKERELVAAINSVARTNYADSVKGRFTISRDNAKNTVYLHMNSLKPEDTAVYYCAARYYYSGVTHAKRIAYYYWGQGTQVTVSS	high polyreactivity
QVQLVESGGGLVQVGGSLRLSCAASGRTVWWYAMGWYRQAPGKERELVAAISRGSTNYADSVKGRFTISRDNAKNTVYLQMNSLKPEDTAVYYCNAVSLYQSHDYDYWGQGTQVTVSS	low polyreactivity
QVQLVESGGGLYQAGGSLRLSSAASGRIFPWNTMGWYRQAPGKERELVAGINNGDRTYYADSVKGRFTISRDNAKNTVYLQMNSQKPEDTAVYYCAVDTWYFLFQYGYYQEGDYWGQGTQVTVSS	low polyreactivity
QVQLVESGGGVDQAGGSLRLSGAASGSTFHSYTMGWYRQAPGKERELVAAITRSGGSTYYADSGKGRFTISRETAKNTVYLQMNSQKPEDTAVYYCAVPYCRNSRLVDLAYHFYYWGQGTQVTVSS	high polyreactivity
QVQLVESGGGVGQAGGSLRLSCAASGYTFPDYAMGWYRQAPGKERELFAAIRSGGGTNYADSVKGRFTISRDNAKNTVYLLMNSLQPVDTAVYYSAKEWAGGLYDYWGQGTKVTVSS	low polyreactivity
QVQLVESGGGVVQAGGSLGLSCAASGRLFGYYAMGWYRQAPGKERELGAAINYSGGSTYYADSVKGRFTISRDNAKNTVYLQMNSLKPEDTAVYYCNAVRYTLLYYWGQGTQVTVSS	high polyreactivity
QVQLVESGGGVVQAGGSLRISCAASGRTFGVYAMGWYREAPGKERELVAAINRSGTRTYYADSVKGRFSISRDNPKNTVYLPMNSLKPEDTAVYYCAASWYPGSRNYDYWGQGTQVSVSS	high polyreactivity
QVQLVESGGGVVQAGGSLRLICAASGSTFHSYVMGWYRQAPWKERELVAAITSRGGSTNYADSVKGRFTISRDNAKNTVYLQLNSQKPEDTAVYCCAADGYLGWSYCRYDYWGQGTQVTVSS	low polyreactivity
QVQLVESGGGVVQAGGSLRLSCAACGSTFRSYAMGWYRQAPGTERELVAAISSGGRTYYADSVKGRFTITRDNAKNPVYLPMNSLKPEDTAVYYCAARLYAYRWYGYAFKYEYWGHGTQVTVSS	high polyreactivity
